Read-outs that look alike come from different tables or passages of the source.
How the values were obtained:
[1] = target: T1, AFP158/HLA-A*02:01 complex (human); assay: SPR, fold vs AS170036 VL1VH1
T1 construct: flowed as analyte in SPR
Method: (§1) The experiment was carried out as follows. The crude scFv protein were captured onto the sensorchip. Different concentrations (320, 160, 40 nM) of AFP158/HLA-A*02:01 complex flowed over the sensorchip surface, and were allowed to bind the antibody fragment for 100 s followed by injection of the running buffer to allow dissociation of the complex. On-rate (kd) and off-rate (kd) were calculated based on association and dissociation curve, and were used to estimate the equilibrium dissociation constant (KD).

[2] = target: T1, AFP158/HLA-A*02:01 complex; assay: SPR, crude scFv captured, pMHC analyte
Method: as §1
(§2) The crude scFv muteins were then subjected to SPR affinity measurement by the method mentioned above.

[3] = target: T1, AFP158/HLA-A*02:01 complex; assay: SPR, crude scFv captured, pMHC analyte; remark: listed apart in the source
Method: as §1, §2

[4] = target: T1, AFP158/HLA-A*02:01 complex; assay: SPR, crude scFv captured, pMHC analyte; remark: listed apart in the source
Method: as §1

[5] = target: T1, AFP158/HLA-A*02:01 complex; assay: SPR, fold vs AS170036 VL1VH1; remark: listed apart in the source
Method: as §1, §2

[6] = target: T1, AFP158/HLA-A*02:01 complex; assay: SPR, fold vs AS170036 VL1VH1; remark: listed apart in the source

B1: AS170036 VL1VH1 (scFv)
scFv: QSALTQPRSVSGSPGQSVTISCAGTSSDVGSENYVSWYQQHPGKAPKLMIYQVNKRASGVPDRFSGSKSGNTASLTISGLQAEDEADYYCASYRSSDHNIVFGGGTKLTVLGGGGSGGGGSGGGGSEVQLVESGGGLVQPGGSLRLSCAASGFTFSSYAMSWVRQAPGKGLEWVSTINSGTGSPYYADSVKGRFTISRDNSKNTLYLQMNSLRAEDTAVYYCAKNFFDGSWFLGPPAMDYWGQGTLVTVSSHHHHHH
notes: Crude scFv from E. coli TG1 supernatant; also called AS170036 VL1VH1 scFv
Affinity increase [1]: 1 fold | Kd [2]: 230 nM | koff [2]: 0.11 s⁻¹ | kon [2]: 490000 M⁻¹ s⁻¹ | Kd [3]: 230 nM | koff [3]: 0.11 s⁻¹ | kon [3]: 490000 M⁻¹ s⁻¹ | Kd [4]: 270 nM | koff [4]: 0.1 s⁻¹ | kon [4]: 380000 M⁻¹ s⁻¹ | Affinity increase [5]: 1 fold | Affinity increase [6]: 1 fold

B2: AS170036 VL1VH1-VLH98F (scFv)
scFv: QSALTQPRSVSGSPGQSVTISCAGTSSDVGSENYVSWYQQHPGKAPKLMIYQVNKRASGVPDRFSGSKSGNTASLTISGLQAEDEADYYCASYRSSDFNIVFGGGTKLTVLGGGGSGGGGSGGGGSEVQLVESGGGLVQPGGSLRLSCAASGFTFSSYAMSWVRQAPGKGLEWVSTINSGTGSPYYADSVKGRFTISRDNSKNTLYLQMNSLRAEDTAVYYCAKNFFDGSWFLGPPAMDYWGQGTLVTVSSHHHHHH
Affinity increase [1]: 3.3 fold | Kd [4]: 74 nM | koff [4]: 0.033 s⁻¹ | kon [4]: 450000 M⁻¹ s⁻¹

B3: AS170036 VL1VH1-VHG108S (scFv)
scFv: QSALTQPRSVSGSPGQSVTISCAGTSSDVGSENYVSWYQQHPGKAPKLMIYQVNKRASGVPDRFSGSKSGNTASLTISGLQAEDEADYYCASYRSSDHNIVFGGGTKLTVLGGGGSGGGGSGGGGSEVQLVESGGGLVQPGGSLRLSCAASGFTFSSYAMSWVRQAPGKGLEWVSTINSGTGSPYYADSVKGRFTISRDNSKNTLYLQMNSLRAEDTAVYYCAKNFFDGSWFLSPPAMDYWGQGTLVTVSSHHHHHH
Affinity increase [1]: 2.8 fold | Kd [4]: 96 nM | koff [4]: 0.026 s⁻¹ | kon [4]: 270000 M⁻¹ s⁻¹

B4: AS170036 VL1VH1-VHG108N (scFv)
scFv: QSALTQPRSVSGSPGQSVTISCAGTSSDVGSENYVSWYQQHPGKAPKLMIYQVNKRASGVPDRFSGSKSGNTASLTISGLQAEDEADYYCASYRSSDHNIVFGGGTKLTVLGGGGSGGGGSGGGGSEVQLVESGGGLVQPGGSLRLSCAASGFTFSSYAMSWVRQAPGKGLEWVSTINSGTGSPYYADSVKGRFTISRDNSKNTLYLQMNSLRAEDTAVYYCAKNFFDGSWFLNPPAMDYWGQGTLVTVSSHHHHHH
Affinity increase [1]: 2 fold | Kd [4]: 140 nM | koff [4]: 0.045 s⁻¹ | kon [4]: 330000 M⁻¹ s⁻¹

B5: AS170036 VL1VH1-VHS57R (scFv)
scFv: QSALTQPRSVSGSPGQSVTISCAGTSSDVGSENYVSWYQQHPGKAPKLMIYQVNKRASGVPDRFSGSKSGNTASLTISGLQAEDEADYYCASYRSSDHNIVFGGGTKLTVLGGGGSGGGGSGGGGSEVQLVESGGGLVQPGGSLRLSCAASGFTFSSYAMSWVRQAPGKGLEWVSTINSGTGRPYYADSVKGRFTISRDNSKNTLYLQMNSLRAEDTAVYYCAKNFFDGSWFLGPPAMDYWGQGTLVTVSSHHHHHH
Affinity increase [1]: 2.8 fold | Kd [4]: 88 nM | koff [4]: 0.017 s⁻¹ | kon [4]: 200000 M⁻¹ s⁻¹

B6: AS170036 VL1VH1-VHS57K (scFv)
scFv: QSALTQPRSVSGSPGQSVTISCAGTSSDVGSENYVSWYQQHPGKAPKLMIYQVNKRASGVPDRFSGSKSGNTASLTISGLQAEDEADYYCASYRSSDHNIVFGGGTKLTVLGGGGSGGGGSGGGGSEVQLVESGGGLVQPGGSLRLSCAASGFTFSSYAMSWVRQAPGKGLEWVSTINSGTGKPYYADSVKGRFTISRDNSKNTLYLQMNSLRAEDTAVYYCAKNFFDGSWFLGPPAMDYWGQGTLVTVSSHHHHHH
Affinity increase [1]: 4.4 fold | Kd [4]: 56 nM | koff [4]: 0.0081 s⁻¹ | kon [4]: 150000 M⁻¹ s⁻¹

B7: AS170036 VL1VH1-VHS57H (scFv)
scFv: QSALTQPRSVSGSPGQSVTISCAGTSSDVGSENYVSWYQQHPGKAPKLMIYQVNKRASGVPDRFSGSKSGNTASLTISGLQAEDEADYYCASYRSSDHNIVFGGGTKLTVLGGGGSGGGGSGGGGSEVQLVESGGGLVQPGGSLRLSCAASGFTFSSYAMSWVRQAPGKGLEWVSTINSGTGHPYYADSVKGRFTISRDNSKNTLYLQMNSLRAEDTAVYYCAKNFFDGSWFLGPPAMDYWGQGTLVTVSSHHHHHH
Affinity increase [1]: 6.9 fold | Kd [4]: 35 nM | koff [4]: 0.0061 s⁻¹ | kon [4]: 170000 M⁻¹ s⁻¹

B8: AS170036 VL1VH1-VLH98V (scFv)
scFv: QSALTQPRSVSGSPGQSVTISCAGTSSDVGSENYVSWYQQHPGKAPKLMIYQVNKRASGVPDRFSGSKSGNTASLTISGLQAEDEADYYCASYRSSDVNIVFGGGTKLTVLGGGGSGGGGSGGGGSEVQLVESGGGLVQPGGSLRLSCAASGFTFSSYAMSWVRQAPGKGLEWVSTINSGTGSPYYADSVKGRFTISRDNSKNTLYLQMNSLRAEDTAVYYCAKNFFDGSWFLGPPAMDYWGQGTLVTVSSHHHHHH
Affinity increase [1]: 3.2 fold | Kd [4]: 78 nM | koff [4]: 0.018 s⁻¹ | kon [4]: 230000 M⁻¹ s⁻¹

B9: AS170036 VL1VH1-VHS57Q (scFv)
scFv: QSALTQPRSVSGSPGQSVTISCAGTSSDVGSENYVSWYQQHPGKAPKLMIYQVNKRASGVPDRFSGSKSGNTASLTISGLQAEDEADYYCASYRSSDHNIVFGGGTKLTVLGGGGSGGGGSGGGGSEVQLVESGGGLVQPGGSLRLSCAASGFTFSSYAMSWVRQAPGKGLEWVSTINSGTGQPYYADSVKGRFTISRDNSKNTLYLQMNSLRAEDTAVYYCAKNFFDGSWFLGPPAMDYWGQGTLVTVSSHHHHHH
Affinity increase [1]: 2.4 fold | Kd [4]: 100 nM | koff [4]: 0.022 s⁻¹ | kon [4]: 210000 M⁻¹ s⁻¹

B10: AS170036 VL1VH1-VLH98Q (scFv)
scFv: QSALTQPRSVSGSPGQSVTISCAGTSSDVGSENYVSWYQQHPGKAPKLMIYQVNKRASGVPDRFSGSKSGNTASLTISGLQAEDEADYYCASYRSSDQNIVFGGGTKLTVLGGGGSGGGGSGGGGSEVQLVESGGGLVQPGGSLRLSCAASGFTFSSYAMSWVRQAPGKGLEWVSTINSGTGSPYYADSVKGRFTISRDNSKNTLYLQMNSLRAEDTAVYYCAKNFFDGSWFLGPPAMDYWGQGTLVTVSSHHHHHH
Affinity increase [1]: 3.3 fold | Kd [4]: 75 nM | koff [4]: 0.016 s⁻¹ | kon [4]: 220000 M⁻¹ s⁻¹

B11: AS170036 VL1VH1-VLH98T (scFv)
scFv: QSALTQPRSVSGSPGQSVTISCAGTSSDVGSENYVSWYQQHPGKAPKLMIYQVNKRASGVPDRFSGSKSGNTASLTISGLQAEDEADYYCASYRSSDTNIVFGGGTKLTVLGGGGSGGGGSGGGGSEVQLVESGGGLVQPGGSLRLSCAASGFTFSSYAMSWVRQAPGKGLEWVSTINSGTGSPYYADSVKGRFTISRDNSKNTLYLQMNSLRAEDTAVYYCAKNFFDGSWFLGPPAMDYWGQGTLVTVSSHHHHHH
Affinity increase [1]: 2.9 fold | Kd [4]: 84 nM | koff [4]: 0.025 s⁻¹ | kon [4]: 290000 M⁻¹ s⁻¹

B12: AS170036 VL1VH1-VLH98I (scFv)
scFv: QSALTQPRSVSGSPGQSVTISCAGTSSDVGSENYVSWYQQHPGKAPKLMIYQVNKRASGVPDRFSGSKSGNTASLTISGLQAEDEADYYCASYRSSDINIVFGGGTKLTVLGGGGSGGGGSGGGGSEVQLVESGGGLVQPGGSLRLSCAASGFTFSSYAMSWVRQAPGKGLEWVSTINSGTGSPYYADSVKGRFTISRDNSKNTLYLQMNSLRAEDTAVYYCAKNFFDGSWFLGPPAMDYWGQGTLVTVSSHHHHHH
Affinity increase [1]: 3.1 fold | Kd [4]: 78 nM | koff [4]: 0.018 s⁻¹ | kon [4]: 230000 M⁻¹ s⁻¹

B13: AS170036 VL1VH1-VHS57M (scFv)
scFv: QSALTQPRSVSGSPGQSVTISCAGTSSDVGSENYVSWYQQHPGKAPKLMIYQVNKRASGVPDRFSGSKSGNTASLTISGLQAEDEADYYCASYRSSDHNIVFGGGTKLTVLGGGGSGGGGSGGGGSEVQLVESGGGLVQPGGSLRLSCAASGFTFSSYAMSWVRQAPGKGLEWVSTINSGTGMPYYADSVKGRFTISRDNSKNTLYLQMNSLRAEDTAVYYCAKNFFDGSWFLGPPAMDYWGQGTLVTVSSHHHHHH
Affinity increase [1]: 2.7 fold | Kd [4]: 90 nM | koff [4]: 0.025 s⁻¹ | kon [4]: 280000 M⁻¹ s⁻¹

B14: AS170036 VL1VH1-VLH98A (scFv)
scFv: QSALTQPRSVSGSPGQSVTISCAGTSSDVGSENYVSWYQQHPGKAPKLMIYQVNKRASGVPDRFSGSKSGNTASLTISGLQAEDEADYYCASYRSSDANIVFGGGTKLTVLGGGGSGGGGSGGGGSEVQLVESGGGLVQPGGSLRLSCAASGFTFSSYAMSWVRQAPGKGLEWVSTINSGTGSPYYADSVKGRFTISRDNSKNTLYLQMNSLRAEDTAVYYCAKNFFDGSWFLGPPAMDYWGQGTLVTVSSHHHHHH
Affinity increase [1]: 2.3 fold | Kd [4]: 110 nM | koff [4]: 0.027 s⁻¹ | kon [4]: 260000 M⁻¹ s⁻¹

B15: AS170036 VL1VH1-VLE32W (scFv)
scFv: QSALTQPRSVSGSPGQSVTISCAGTSSDVGSWNYVSWYQQHPGKAPKLMIYQVNKRASGVPDRFSGSKSGNTASLTISGLQAEDEADYYCASYRSSDHNIVFGGGTKLTVLGGGGSGGGGSGGGGSEVQLVESGGGLVQPGGSLRLSCAASGFTFSSYAMSWVRQAPGKGLEWVSTINSGTGSPYYADSVKGRFTISRDNSKNTLYLQMNSLRAEDTAVYYCAKNFFDGSWFLGPPAMDYWGQGTLVTVSSHHHHHH
Affinity increase [1]: 2.4 fold | Kd [4]: 100 nM | koff [4]: 0.016 s⁻¹ | kon [4]: 150000 M⁻¹ s⁻¹

B16: AS170036 VL1VH1-VLH98P (scFv)
scFv: QSALTQPRSVSGSPGQSVTISCAGTSSDVGSENYVSWYQQHPGKAPKLMIYQVNKRASGVPDRFSGSKSGNTASLTISGLQAEDEADYYCASYRSSDPNIVFGGGTKLTVLGGGGSGGGGSGGGGSEVQLVESGGGLVQPGGSLRLSCAASGFTFSSYAMSWVRQAPGKGLEWVSTINSGTGSPYYADSVKGRFTISRDNSKNTLYLQMNSLRAEDTAVYYCAKNFFDGSWFLGPPAMDYWGQGTLVTVSSHHHHHH
Affinity increase [1]: 3.5 fold | Kd [4]: 70 nM | koff [4]: 0.017 s⁻¹ | kon [4]: 240000 M⁻¹ s⁻¹

Source: patent publication US20240279318A1 (NANJING LEGEND BIOTECH, published 2024)
